The text below walks through data of article PMC7609953, “Expression, Purification, Refolding, and Characterization of a Neverland Protein From Caenorhabditis elegans” (Frontiers in Bioengineering and Biotechnology, 2020).

The data set concerns the molecule itself. Description: SEC; Superdex200 Increase 10/300 GL, 20 mM Tris-HCl, 150 mM NaCl, 1 mM DTT, pH 8.0, 1 ml/min; aldolase (158 kDa) and conalbumin (75 kDa) as calibration proteins; oligomeric state of the refolded protein.

B1: Refolded His-tagged neverland protein from Caenorhabditis elegans (His_CeNVD) (enzyme)
chain: RQLERLKLLRRVGDMPPVFPNGWYCVCESEKLANNQIMEITVLGQFLSLIRSESGAVYITDSYCPHIGANFNIGGRVVRDNCIQCPFHGWIFSAETGKCVEVPYDEGRIPEQAKVTTWPCIERNNNIYLWYHCDGAEPEWEIPEITEITDGFWHLGGRTEHEVMCHIQEIPENGADIAHLNYLHKSAPPVTKGSDIIKTDLSDPQPAVQHVWDGKWEVKSEEDRHCGVMHLNQFMTFWGYKVPLTSSKLVAEQHGPGIVHMLFDFGIWGKGVVFQTVTPEEALLQRVRFRIFSNIPWFFVKFFMTVEAMQFERDVFIWSNKKYIKSPLLVKNDGPIQKHRRWFSQFYTENSPKMLKDGSLSNQAKSIFDW
Usually stoichiometry N stands for a count of units in the complex or per binding partner. With B1, the “stoichiometry N” value is 3.
